The text below walks through data of US20080102065A1 (published 2008).

Changes are numbered by the printed parent chain.

Sequences and labels used below:
B1: Mxb 201 (clone 201 scFv-Fc protein) (Fc fusion)
VH: QVQLQESGSGLARPSQTLSLTCAVSGGSISSSAFSWNWIRQPPGKGLEWIGYIYHTGITDYNPSLKSRVTISVDRSKNQFSLNVNSVTAADTAVYYCARGHGSDPAWFDPWGKGTLVTVSS
VL: QSVLTQPPSVSVSPGQTASITCSGDKLGDKYASWYQQRPGQSPVLVIYRDTKRPSGIPERFSGSNSGNTATLTISGTQAVDEADYYCQAWDSTTSLVFGGGTKLTVL
notes: Tested as scFv-Fc (maxibody) with an Fc derived from human IgG1
B2: Mxb 378 (clone 378 scFv-Fc protein) (Fc fusion)
VH: QVQLVESGGGLVQPGRSLILSCAVSGFTFSKYWMTWVRQAPGKGLEWVANIKPDGSEKYYVESVKGRFTISRDNAKNSVYLQMNSVRAEDTAVYYCARVSRGGSFSDWSQGTLVTVSS
VL: QSALTQPPSASGSPGQSVTISCTGTSGDVGAYNYVSWYQQYPGKAPKLMIYEVSKRPSGVPDRFSGSKSGNTASLTVSGLQAEDEADYYCNSYRGSNGPWVFGGGTKVTVL
B3: Mxb 13 (clone 13 scFv-Fc protein) (Fc fusion)
VH: QVQLQQSGGGVVQPGRSLRLSCAASGFTFSDYAMHWVRQAPGKGLEWVAVISNHGKSTYYADSVKGRFTISRDNSKHMLYLQMNSLRADDTALYYCARDIALAGDYWGQGTLVTVSA
VL: DIQMTQSPSSLSASVGDRVTITCRASQSISSYLNWYQQLPGKVPKLLIYGASKLQSGVPSRFSGSGSGTDFTLTISSLQPEDFATYYCLQDYNYPLTFGPGTRLEIK
notes: as for B1
B4: Mxb 295 (clone 295 scFv-Fc protein) (Fc fusion)
VH: EVQLVESGGGLVQPGGSLRLSCAASGFTFSSYAMSWVRQAPGKGLEWVSGISGSGSSEGGTYYADSVKGRFTLSRDNSKNTLYLQMNSLRAEDTALYYCVKDRPSRYSFGYYFDYWGRGTLVTVSS
VL: LPVLTQPPSVSVSPGQTASIACSGNKLGDKYVSWYQQKPGQSPLLVIYQDTKRPSGIPERFSGSNSGNTATLTISGTQAMDEADYYCQAWDSSTDVVFGGGTKLTVL
notes: as for B1
B5: Mxb 15 (clone 15 scFv-Fc protein) (Fc fusion)
VH: QVQLQESGPGLVRPSGTLSLTCAVSGGSIGSSNWWSWVRQAPGKGLEWIGEISQSGSTNYNPSLKGRVTISLDRSRNQLSLKLSSVTAADTAVYYCARQLRSIDAFDIWGPGTTVTVSA
VL: SYVLTQPPSVSVSPGLTATITCSGDKLGDKYASWYQQKPGQSPVLVIYQDRKRPSGIPERFSGSNSGNTATLTISGTQAVDEADYYCQAWDSDTSYVFGTGTQLTVL
notes: as for B1
B6: Mxb 276 (clone 276 scFv-Fc protein) (Fc fusion)
VH: EVQLVQSGGGLVQPGGSLRLSCAASGFTFSSYWMSWVRQAPGKGLEWVANIKPDGSEKYYVDSVKGRFTISRDNAKNSVYLQMNSLRAEDTAVYYCARVSRGGSYSDWGRGTMVTVSS
VL: QSVLTQPPSASGSPGQSVTISCTGTSSDVGGFNYVSWYQKYPGKAPKLVIYEVSKRPSGVPDRFSGSKSGNTASLTVSGLQAEDEADYYCSSWAPGKNLFGGGTKLTVL
B7: Mxb 352 (clone 352 scFv-Fc protein) (Fc fusion)
VH: B6 VH with T28R, S35T, I70M, Y105F, R110Q, M113L
VL: QSALTQPASVSGSPGQSITIPCTGTSSDIGTYDYVSWYQQHPGKVPKVIIYEVTNRPSGVSNRFSGSKSGNTASLTISGLQADDEADYYCNSFTKNNTWVFGGGTKLTVL
B8: Mxb 323 (clone 323 scFv-Fc protein) (Fc fusion)
VH: B2 VH with R16G, I19R, S109G, Q110R, L113M
VL: QSALTQPASVSGSPGQSITISCTGTSSDVGSYNLVSWYQQHPGKVPKLIIYEVSNRPSGVSHRFSGSKSGNTASLTISGLQAEDEADYYCSSLTSSGTWVFGGGTKVTVL
B9: Mxb 307 (clone 307 scFv-Fc protein) (Fc fusion)
VH: B2 VH with Q1E, R16G, I19R, S109G, L113M
VL: QSVLTQPPSASGSPGQSVTISCTGTSSDVGGYNYVSWYQQHPDKAPRLMIYDVNKRPSGVPDRFSGSKSGNTASLTVSGLQAEDEAHYYCNSYAGSNNWVFGGGTQLTVL
notes: as for B1
B10: Mxb 319 (clone 319 scFv-Fc protein) (Fc fusion)
VH: QVQLVQSGAEIKKPGASVKVSCKTFGSPFSTNDIHWVRQAPGQGLEWMGIIDTSGAMTRYAQKFQGRVTVTRETSTSTVYMELSSLKSEDTAVYYCAREGCTNGVCYDNGFDIWGQGTLVTVSS
VL: DIQMTQSPSTLSASIGDRVTITCRASEGIYHWLAWYQQKPGKAPKLLIYKASSLASGAPSRFSGSGSGTDFTLTISSLQPDDFATYYCQQYSNYPLTFGGGTKLEIK
notes: as for B1
B11: Mxb 16 (clone 16 scFv-Fc protein) (Fc fusion)
VH: QVQLQESGPGLVKPSETLSLTCTVSGGYINNYYWSWIRQPPGKGLEWIGYIHYSGSTYYNPSLKSRVTISEDTSKNQFSLKLSSATAADTAVYYCARVGYYYDSSGYNLAWYFDLWGRGTLVTVSA
VL: SSELTQDPAVSVALGQTVRITCQGDNLRSYSATWYQQKPGQAPVLVLFGENNRPSGIPDRFSGSKSGDTAVLTITGTQTQDEADYYCTSRVNSGNHLGVFGPGTQLTVL
notes: as for B1

For the first assay, the target named is T1, huEpoR expressed on the cell surface (UT-7 cells) (human, UniProt P19235 25-508).
T1 sequence (looked up): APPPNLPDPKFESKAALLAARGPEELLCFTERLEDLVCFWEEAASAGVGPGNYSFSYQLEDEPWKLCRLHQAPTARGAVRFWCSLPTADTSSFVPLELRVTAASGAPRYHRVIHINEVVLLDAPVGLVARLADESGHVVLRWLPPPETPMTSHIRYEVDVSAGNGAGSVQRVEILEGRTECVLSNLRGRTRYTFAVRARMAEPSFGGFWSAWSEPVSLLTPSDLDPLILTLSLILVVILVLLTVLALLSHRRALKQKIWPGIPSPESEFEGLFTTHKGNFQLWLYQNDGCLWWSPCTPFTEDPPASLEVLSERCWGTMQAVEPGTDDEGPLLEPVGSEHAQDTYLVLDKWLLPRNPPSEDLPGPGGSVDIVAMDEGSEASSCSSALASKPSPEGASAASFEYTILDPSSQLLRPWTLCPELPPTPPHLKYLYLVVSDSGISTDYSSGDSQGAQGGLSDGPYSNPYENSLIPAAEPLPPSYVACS
The assay is described as follows: cell-based or functional assay.
Consider B1, for which the “Average EC50 (nM), UT-7-luciferase (STAT5 reporter) assay” value (“Average EC50 (nM), UT-7-luciferase” for short) was 8.28 nM and the “Ratio (EC50 of Epo / EC50 of the scFv-Fc), UT-7-luciferase assay” value turned out to be 0.001.
On to B2, for which the “Average EC50 (nM), UT-7-luciferase” value was found to be 0.055 nM and the “Ratio (EC50 of Epo / EC50 of the scFv-Fc), UT-7-luciferase assay” value is 0.175.
For the molecule B3, the “Average EC50 (nM), UT-7-luciferase” value came out at 4.03 nM and the “Ratio (EC50 of Epo / EC50 of the scFv-Fc), UT-7-luciferase assay” value was 0.002.
Taken in the same sequence, the figures for B4 were 0.607 nM and 0.016.
For B5, in that order: 2.8 nM and 0.003.
Turning to B6, the “Average EC50 (nM), UT-7-luciferase” value was 0.322 nM and the “Ratio (EC50 of Epo / EC50 of the scFv-Fc), UT-7-luciferase assay” value is 0.03.
For B7, in that order: 2.16 nM and 0.004.
On to B8, for which the “Average EC50 (nM), UT-7-luciferase” value was determined as 0.613 nM and the “Ratio (EC50 of Epo / EC50 of the scFv-Fc), UT-7-luciferase assay” value was determined as 0.016.
For B9, in that order: 0.381 nM and 0.025.
Taken in the same sequence, the figures for B10 were 5.87 nM and 0.002.

For the next assay, the target named is T2, huEpoR protein (soluble human erythropoietin receptor) (human, UniProt P19235 25-250, limits assumed).
T2 construct: also called soluble huEpoR; biotinylated huEpoR
T2 sequence (looked up): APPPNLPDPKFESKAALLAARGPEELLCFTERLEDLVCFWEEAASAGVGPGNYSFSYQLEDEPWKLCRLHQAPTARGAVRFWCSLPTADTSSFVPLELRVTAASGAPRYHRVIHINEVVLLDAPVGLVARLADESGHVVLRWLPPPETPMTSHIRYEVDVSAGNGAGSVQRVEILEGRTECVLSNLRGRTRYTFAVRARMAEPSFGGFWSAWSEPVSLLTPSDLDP
The assay is described as follows: SPR, Biacore T100; scFv-Fc captured on anti-human IgG Fc CM5 chip, EpoR as analyte; 1:1 fit.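 Further: measured at 25 °C in HBS-EP buffer with 0.1 mg/ml BSA, flowed at 50 µl/min, 1 min association then dissociation (10 min human, 5 min cyno EpoR).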
As for B1, binding was characterised by a dissociation constant (Kd) of 4030 nM, the off-rate (koff) stood at 0.0187 s⁻¹ and the kon is 4600 M⁻¹ s⁻¹.
For B11, in that order: 2190 nM, 0.142 s⁻¹ and 65000 M⁻¹ s⁻¹.
Molecule B3 displayed a Kd of 1040 nM, a koff of 0.0568 s⁻¹ and a kon of 55000 M⁻¹ s⁻¹.
B4 came in with a Kd of 163 nM, a koff of 0.00296 s⁻¹ and a kon of 18000 M⁻¹ s⁻¹.
Taken in the same sequence, the figures for B5 were 1950 nM, 0.119 s⁻¹ and 61000 M⁻¹ s⁻¹.
B9: the Kd is 108 nM, the koff worked out at 0.246 s⁻¹ and the kon stood at 2.28e+06 M⁻¹ s⁻¹.
Taken in the same sequence, the figures for B10 were 212 nM, 0.0335 s⁻¹ and 158000 M⁻¹ s⁻¹.

In another assay the target is T3, cynomolgus monkey EpoR (cynoEpoR) (cynomolgus monkey, UniProt A0A2K5WKK4 25-250).
T3 construct: Soluble protein (coated in ELISA, analyte in SPR)
T3 sequence: T2 sequence (looked up) with A19V, G47A, G49S, G51D, Q58H, V112I, S135G, V138I, T148A
The description is as above.
B11: the Kd was 4360 nM, the koff amounted to 0.283 s⁻¹ and the kon worked out at 65000 M⁻¹ s⁻¹.
Taken in the same sequence, the figures for B3 were 920 nM, 0.0597 s⁻¹ and 65000 M⁻¹ s⁻¹.
As for B4, the affinity, expressed as Kd, was 539 nM; the koff stood at 0.0221 s⁻¹; the association rate constant (kon) was 41000 M⁻¹ s⁻¹.
Taken in the same sequence, the figures for B5 were 3130 nM, 0.115 s⁻¹ and 37000 M⁻¹ s⁻¹.
For B9, in that order: 1210 nM, 0.361 s⁻¹ and 299000 M⁻¹ s⁻¹.
For B10, in that order: 121 nM, 0.0258 s⁻¹ and 213000 M⁻¹ s⁻¹.

In another assay the target is T4, mouse EpoR (muEpoR) (mouse, UniProt P14753 25-249, limits assumed).
T4 sequence (looked up): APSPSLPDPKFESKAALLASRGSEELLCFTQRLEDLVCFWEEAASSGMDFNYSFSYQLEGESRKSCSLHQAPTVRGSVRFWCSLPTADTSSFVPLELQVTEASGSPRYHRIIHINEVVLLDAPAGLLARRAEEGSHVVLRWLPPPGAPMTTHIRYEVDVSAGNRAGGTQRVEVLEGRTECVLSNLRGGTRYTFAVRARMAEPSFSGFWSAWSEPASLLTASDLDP
The assay is described as follows: ELISA on coated muEpoR, scFv-Fc at 5 µg/ml (Example 17).
As for B11, the binding result is listed as “no binding (tested: 5 µg/ml)”.
With B3, the binding result is given as “no binding (tested: 5 µg/ml)”.
B4: the binding result is listed as “no binding (tested: 5 µg/ml)”.
Still for that read-out and setting: the value for B5 was “no binding (tested: 5 µg/ml)”.
The same measure, in the same setting: the value for B9 was “no binding (tested: 5 µg/ml)”.
For the molecule B10, the binding result is listed as “no binding (tested: 5 µg/ml)”.
